Measured values as given in publication PMC9143606, “Reactivity of a Recombinant Esterase from Thermus thermophilus HB27 in Aqueous and Organic Media” (Microorganisms, 2022).

Assays:
Test in all cases: purified protein
Assay type in all cases: biochemical, Thermus thermophilus
Conditions in all cases: pH 7.5, 47.5 °C, 10% (v/v) isopropanol, enzyme prediluted in 50 mM phosphate
purified protein [1] = substrate: CCCCCCCC(=O)Oc1ccc([N+](=O)[O-])cc1
purified protein [2] = substrate: CCCCCCCCCCCC(=O)Oc1ccc([N+](=O)[O-])cc1
purified protein [3] = substrate: CCCCCCCCCCCCCC(=O)Oc1ccc([N+](=O)[O-])cc1
purified protein [4] = substrate: CCCCCCCCCC(=O)Oc1ccc([N+](=O)[O-])cc1

B1: KLEST-3S esterase (E34Tt, N-terminally truncated ∆N16 variant) (Thermus thermophilus HB27) (protein)
chain: QGLEAFWKAVEVPGGVCADGSPYRFYVSPGDPRKVVVDFQGGGACWDQATCGPESRTYRKRVDVQELYLAQGIYNRMSVANPFFGWTHVFVPYCTGDLHVGRATVDYGGFKVHHQGARNAQAALEYVFRNHTNPERVFVTGCSAGAYGAVLWADKILATYKNAQIAVCGDAGVGVVTEDFPGFTAWNPRLPELPGLSSPPKVSEIYRALAQAYPKAVLAQYTTLLDGTQIYFYALMKKEAAPSEATAREWAVAAERAVGFPASEANYTYYLAPGSQHCILPRPELYTLKVGEVSFLDWLRALAEGRTPPRVRP
notes: ∆N16 (putative secretion signal removed; printed cleavage site between residues 16 and 17); secreted by Kluyveromyces lactis NRRL-Y1140; cell-free medium concentrated by ultrafiltration, partially purified, essentially free of contaminant proteins
Work on B1 yielded a Km (purified protein [1]) of 130 ± 30 µM, a kcat/Km (purified protein [1]) of 3.95e+07 M⁻¹ s⁻¹ and a Km (purified protein [2]) of 140 ± 30 µM. It also gave a kcat/Km (purified protein [2]) of 2.34e+07 M⁻¹ s⁻¹, a Km (purified protein [3]) of 190 ± 40 µM and a kcat/Km (purified protein [3]) of 322000 M⁻¹ s⁻¹. The Km (purified protein [4]) was 90 ± 10 µM and the kcat/Km (purified protein [4]) was 4.59e+07 M⁻¹ s⁻¹.
